Positions of bridges follow the written chain, without caps; N, C: chain ends. No end group written: not given here.
T1: recombinant human IGFBP-1 (human, UniProt P08833 26-259)
T1 construct: Plate-coated, biotinylated or coupled to a dextran chip, depending on the assay; also called rhIGFBP-1; biotinylated IGFBP-1
T1 sequence (looked up): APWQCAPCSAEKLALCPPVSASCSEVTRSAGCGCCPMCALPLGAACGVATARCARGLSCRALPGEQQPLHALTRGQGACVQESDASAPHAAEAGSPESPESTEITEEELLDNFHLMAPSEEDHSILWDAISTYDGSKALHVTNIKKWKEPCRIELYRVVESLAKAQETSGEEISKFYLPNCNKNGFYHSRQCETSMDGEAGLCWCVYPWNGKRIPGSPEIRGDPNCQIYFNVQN


target: T2, recombinant human IGFBP-3 (human, UniProt P17936 28-291); experiment: BIAcore competition assay
T2 construct: also called rhIGFBP-3; biotinylated IGFBP-3
T2 sequence (P17936 28-291 limits assumed): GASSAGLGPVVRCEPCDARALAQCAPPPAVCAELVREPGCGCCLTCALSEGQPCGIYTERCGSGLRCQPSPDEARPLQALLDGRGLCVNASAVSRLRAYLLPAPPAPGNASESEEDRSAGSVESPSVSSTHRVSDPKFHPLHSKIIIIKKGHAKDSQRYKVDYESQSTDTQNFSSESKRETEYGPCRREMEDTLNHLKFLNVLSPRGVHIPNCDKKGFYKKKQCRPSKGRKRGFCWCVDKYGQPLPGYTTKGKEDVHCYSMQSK

| binding result | Binder |
| --- | --- |
| binds | ASEEVCWPVAEWYLCN (bp3-01-ox variant) [bp3-30] |
| binds | EVCWPVAEWYLCN (bp3-01-ox variant) [bp3-27] |
| binds | CWPVAEWYLCN [bp3-25 (SEQ ID NO:106)] |
| binds | GPETCWPVAEWYLCN (bp3-01-ox variant) [bp3-41] |
| binds | ASEEVCWPVAEWYLCNMWGR [4d3.3 (peptide)] |
| binds | EEVCWPVAEWYLCN (bp3-01-ox variant) [bp3-28] |

target: T1, recombinant human IGFBP-1; experiment: BIAcore competition assay or ELISA plate assay

| binding result | Binder |
| --- | --- |
| binds | EARVCRAGPLQWLCEKYF-NH2 (disulfide 5-14 (inferred), Peptide from g3 bp1-01 secondary libraries) [bp1-20] |
| binds | SEVGCRAGPLQWLCEKYFSTY-NH2 (disulfide 5-14 (inferred), Peptide from g3 bp1-01 secondary libraries) [bp1-21A] |
| binds | SEMVCRAGPLQWLCEIYF-NH2 (disulfide 5-14 (inferred), Peptide from g3 bp1-01 secondary libraries) [bp1-19] |
| binds | CRAGPLQWLCEKYFSTY-NH2 (disulfide 1-10 (inferred), Peptide from g3 bp1-01 secondary libraries) [bp1-21B] |

target: T1, recombinant human IGFBP-1; experiment: ELISA plate assay or BIAcore competition, IGF-I inhibition

| Binder | binding result |
| --- | --- |
| CKEGPLQWLCEKYF (Peptide from g8 bp1-01 secondary libraries) [bp1-12] | binds |
| CKEGPLLWLCEKYF (Peptide from g8 bp1-01 secondary libraries) [bp1-13] | binds |
| CKAGPLLWLCERFF (Peptide from g8 bp1-01 secondary libraries) [bp1027] | binds |

More lines, now with the values ahead:

| binding result | Binder |
| --- | --- |
| binds | CRKGPLQWLCELYF (Peptide from g8 bp1-01 secondary libraries) [bp1-10] |
| binds | CRAGPLQWLCEKFF (Peptide from g8 bp1-01 secondary libraries) [bp68] |
| binds | CREGPLQWLCERFF (Peptide from g8 bp1-01 secondary libraries) [bp1029] |
| binds | CRKGPLQWLCEKYF (Peptide from g8 bp1-01 secondary libraries) [bp1-11] |
| binds | CRAGPLQWLCERFF (Peptide from g8 bp1-01 secondary libraries) [bp1028] |
| binds | CAAGPLQWLCEKYF (Peptide from g8 bp1-01 secondary libraries) [bp1-15] |
| binds | CKEGPLLWLCERFF (Peptide from g8 bp1-01 secondary libraries) [bp1030] |

target: T1, recombinant human IGFBP-1; experiment: ELISA competition, C-terminal bp1-01 variants

| binding result | Binder |
| --- | --- |
| binds | CRAGPLQWLCEKAA (C-terminal variant of bp1-01) [bp1-18] |

From patent US6693079
